Data on one molecule can be found in publication doi:10.1101/2024.03.03.583237 (bioRxiv, 2024).

The target in the test is SARS-CoV-2 spike trimer (soluble S-trimer) (SARS-CoV-2 Wuhan-Hu-1 (NC_045512), UniProt P0DTC2). In words: live-cell binding assay.

B1: S2L20-CVR (scFv, V domains shown)
VH: EVQLVESGGGVVQPGGSLRLSCAASGFTFNSYGMHWVRQAPGKGLEWVAFIRYDGGNKYYADSVKGRFTISRDNSKNTLYLQMKSLRAEDTAVYYCANLKDSRYSGSYYDYWGQGTLVTVS
VL: not shown
Regarding B1, the binding result is recorded as “binds”.
